Test results taken from patent US20210253697A1.
Each block holds one substance with its values, some of them ahead of it.

Assays:
[1] = target: human TREM-1 on cells (BWZ/hTREM-1 reporter cells, PBMCs, macrophages, neutrophils, monocytes, synovial tissue cells) (human) (UniProt Q9NP99); assay: cell-based or functional assay
[2] = target: human TREM-1 (hTREM-1 protein, SPR analyte of Examples 9 and 11) (human) (UniProt Q9NP99); assay: SPR, mAb captured, hTREM-1 analyte (Example 11)
[3] = target: cynomolgus TREM-1 (cTREM-1 protein, SPR analyte of Examples 9 and 11) (cynomolgus monkey); assay: SPR, mAb captured, cTREM-1 analyte (Example 11)
[4] = target: T1, cynomolgus monkey TREM-1 on cells (reporter cells, PBMCs, macrophages) (cynomolgus monkey); assay: cell-based or functional assay
T1 sequence: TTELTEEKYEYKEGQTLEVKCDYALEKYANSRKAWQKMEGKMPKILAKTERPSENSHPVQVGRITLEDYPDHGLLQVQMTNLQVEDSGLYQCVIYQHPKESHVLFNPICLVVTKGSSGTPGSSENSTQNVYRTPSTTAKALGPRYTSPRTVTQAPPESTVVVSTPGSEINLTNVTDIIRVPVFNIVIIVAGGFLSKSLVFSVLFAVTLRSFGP

Chain of human TREM-1 on cells (BWZ/hTREM-1 reporter cells, PBMCs, macrophages, neutrophils, monocytes, synovial tissue cells) (human) (Q9NP99 21-234 limits assumed): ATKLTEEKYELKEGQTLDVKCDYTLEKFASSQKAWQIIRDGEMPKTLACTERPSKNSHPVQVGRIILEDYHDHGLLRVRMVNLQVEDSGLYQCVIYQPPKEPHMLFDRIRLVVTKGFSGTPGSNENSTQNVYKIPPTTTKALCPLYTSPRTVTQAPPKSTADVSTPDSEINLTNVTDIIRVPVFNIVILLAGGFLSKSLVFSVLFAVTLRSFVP
Chain of human PGLYRP1 (O75594 22-196 limits assumed): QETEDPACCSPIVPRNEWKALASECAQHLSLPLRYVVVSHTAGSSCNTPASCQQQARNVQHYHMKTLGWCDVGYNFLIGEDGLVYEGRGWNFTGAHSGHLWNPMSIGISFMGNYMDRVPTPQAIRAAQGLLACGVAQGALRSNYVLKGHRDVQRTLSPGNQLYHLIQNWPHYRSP
Chain of human TREM-1 (hTREM-1 protein, SPR analyte of Examples 9 and 11) (human) (Q9NP99 21-200 limits assumed): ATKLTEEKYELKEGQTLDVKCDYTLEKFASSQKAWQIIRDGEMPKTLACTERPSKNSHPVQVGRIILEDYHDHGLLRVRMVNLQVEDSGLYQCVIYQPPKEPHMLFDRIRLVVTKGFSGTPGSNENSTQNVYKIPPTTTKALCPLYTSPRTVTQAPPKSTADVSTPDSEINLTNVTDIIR

Substance: MAB1278 (R&D Systems, cat. no. MAB1278) (antibody)
BWZ/hTREM-1 reporter signal, RA synovial fluid, mAb 0.1 ug/ml, assay 1 [1]: 829000
BWZ/hTREM-1 reporter signal, RA synovial fluid, mAb 0.1 ug/ml, assay 2 [1]: 691000
BWZ/hTREM-1 reporter signal, RA synovial fluid, mAb 1 ug/ml, assay 1 [1]: 1.19e+06
BWZ/hTREM-1 reporter signal, RA synovial fluid, mAb 1 ug/ml, assay 2 [1]: 1.02e+06
BWZ/hTREM-1 reporter signal, RA synovial fluid, mAb 10 ug/ml, assay 1 [1]: 1.08e+06
BWZ/hTREM-1 reporter signal, RA synovial fluid, mAb 10 ug/ml, assay 2 [1]: 1.05e+06
IL-6, M2 macrophages on platebound mAb 2 µg/ml, Avg [1]: 412 pg/mL
IL-6, M2 macrophages on platebound mAb 6 µg/ml, Avg [1]: 877 pg/mL
IL-6, M2 macrophages on platebound mAb 20 µg/ml, Avg [1]: 1350 pg/mL
Luminescence × 10E6, BWZ/hTREM-1 reporter cells + activated neutrophils [1]: 1e+07 luminescence
TNFa, M2 macrophages on platebound mAb 2 µg/ml, Avg [1]: 2000 pg/mL
TNFa, M2 macrophages on platebound mAb 6 µg/ml, Avg [1]: 6450 pg/mL
TNFa, M2 macrophages on platebound mAb 20 µg/ml, Avg [1]: 7750 pg/mL
induction of NFAT-driven LacZ production, 1-10 µg/ml plate bound antibody [1]: 40 fold
induction of reporter luminescence, platebound antibody (FIG. 2) [1]: 32 fold
normalised reporter signal, antibody at 1 µg/ml (FIG. 3) [1]: > 1

Substance: Sigma #SAB1405121 (clone 3F5) (antibody)
% remaining activity at 0.003 µg/ml, BWZ/hTREM-1 reporter assay [1]: 104%
% remaining activity at 0.03 µg/ml, BWZ/hTREM-1 reporter assay [1]: 101%
% remaining activity at 0.3 µg/ml, BWZ/hTREM-1 reporter assay [1]: 97%

Substance: Sigma #WH0054210M4 (clone 2E2) (antibody)
Kd [2]: 20 nM
% remaining activity at 0.003 µg/ml, BWZ/hTREM-1 reporter assay [1]: 98%
% remaining activity at 0.03 µg/ml, BWZ/hTREM-1 reporter assay [1]: 104%
% remaining activity at 0.3 µg/ml, BWZ/hTREM-1 reporter assay [1]: 86%

Substance: TREM-26 (Biolegend, cat. nos. 314902 and 314907) (antibody)
Kd [3]: 4 nM
Kd [2]: 0.9 nM
% remaining cyno TREM-1 activity at 0.74 ug/ml, reporter assay [4]: 104%
% remaining cyno TREM-1 activity at 20 ug/ml, reporter assay [4]: 87.7%
% remaining activity at 0.003 µg/ml, BWZ/hTREM-1 reporter assay [1]: 100%
% remaining activity at 0.03 µg/ml, BWZ/hTREM-1 reporter assay [1]: 124%
% remaining activity at 0.3 µg/ml, BWZ/hTREM-1 reporter assay [1]: 108%
Luminescence × 10E6, BWZ/hTREM-1 reporter cells + activated neutrophils [1]: 9.9e+06 luminescence
normalised reporter signal, antibody at 1 µg/ml (FIG. 3) [1]: > 1

Substance: human PGLYRP1 (from UniProt O75594 22-196) (ligand)
TNF-α, cyno M2 macrophages, PGN + PGRP-S, Donor 1 Avg [4]: 295 pg/mL
TNF-α, cyno M2 macrophages, PGN + PGRP-S, Donor 2 Avg [4]: 307 pg/mL
GM-CSF, RA synovial tissue cells, PGN + PGLYRP1 [1]: 616 pg/mL
IL-1beta, RA synovial tissue cells, PGN + PGLYRP1 [1]: 3770 pg/mL
IL-6, RA synovial tissue cells, PGN + PGLYRP1 [1]: 4190 pg/mL
IL-8, RA synovial tissue cells, PGN + PGLYRP1 [1]: 5510 pg/mL
MCP-1, RA synovial tissue cells, PGN + PGLYRP1 [1]: 471 pg/mL
MIP-1beta, RA synovial tissue cells, PGN + PGLYRP1 [1]: 4400 pg/mL
TNFa, normoxic M2 macrophages, PGN-BS + PGLYRP1, Donor 1 Avg [1]: 728 pg/mL
TNFa, normoxic M2 macrophages, PGN-BS + PGLYRP1, Donor 2 Avg [1]: 771 pg/mL
TNFalpha, RA synovial tissue cells, PGN + PGLYRP1 [1]: 1440 pg/mL

Continued, values first:

Kd [2]: 30 nM
% remaining activity at 0.003 µg/ml, BWZ/hTREM-1 reporter assay [1]: 120%
% remaining activity at 0.03 µg/ml, BWZ/hTREM-1 reporter assay [1]: 134%
% remaining activity at 0.3 µg/ml, BWZ/hTREM-1 reporter assay [1]: 131%
Substance: SC98Z12 (Santa Cruz Biotechnology, sc-80394, clone 98Z12) (antibody)

Kd [2]: 0.8 nM
% remaining activity at 0.003 µg/ml, BWZ/hTREM-1 reporter assay [1]: 98%
% remaining activity at 0.03 µg/ml, BWZ/hTREM-1 reporter assay [1]: 103%
% remaining activity at 0.3 µg/ml, BWZ/hTREM-1 reporter assay [1]: 90%
Luminescence × 10E6, BWZ/hTREM-1 reporter cells + activated neutrophils [1]: 6.1e+06 luminescence
normalised reporter signal, antibody at 1 µg/ml (FIG. 3) [1]: > 1
Substance: TREM-37 (Biolegend, cat. no. 316102) (antibody)

TNF-a release, RA synovial tissue cells, IgG4 + Type II cells, 1 × 10^4 HEK cells [1]: 95 pg/mL
TNF-a release, RA synovial tissue cells, IgG4 + Type II cells, 1 × 10^5 HEK cells [1]: 121 pg/mL
TNF-a release, RA synovial tissue cells, IgG4 + Type II cells, 3 × 10^3 HEK cells [1]: 54.6 pg/mL
TNF-a release, RA synovial tissue cells, IgG4 + Type II cells, 3 × 10^3 HEK cells (second column so headed) [1]: 57.9 pg/mL
TNF-a release, RA synovial tissue cells, IgG4 + Type II cells, 3 × 10^4 HEK cells [1]: 114 pg/mL
Substance: type II PGLYRP1 on transiently transfected HEK cells (ligand)
